Patent publication US20220056112A1 (YUROGEN BIOSYSTEMS, published 2022)

B1: rabbit monoclonal antibody 1F8 against the SARS-CoV-2 nucleocapsid protein (antibody, V domains shown)
VH: QEHLEESGGGLVKPGASLTLTCTASGFSLSNNYWICWVRQAPGKGLEWIACIYTGRDYTYYTSWAKGRFTISKTSSTTVTLQLNSLTAADTATYFCARNNTDYGDYWDLWGPGTLVTVSS
VL: AQVLTQTASPVSVAVGDTVTINCQASQSVYKNNYLAWYQLKPGQPPKLLIYWGTKLPSGVPSRFKGSGSGTHFTLTISDVQCDDAATYYCLGSYDCTIAECNVFGGGTEVVVEG
B2: rabbit monoclonal antibody 5B4 against the SARS-CoV-2 nucleocapsid protein (antibody, V domains shown)
VH: QSLEESGGGLVKPGGTLTLTCTVSGLSLSTNAPNWVRQAPGKGLEWIGTIFIDDEDTYYASWAKGRFTISKTSSTTITLKMTSLTAADTATYFCARNSDLWDPGTLVVVSS
VL: AQVLTQTPSPVSAAVGGTVTINCQASQSVYNNNYLSWFQQKPGQPPKLLIYKASTLASGVSSRFKGSGSGTQFTLTISDVQCDDAATYFCLGSYDCRSANCIVFGGGTEVVVKG
B3: rabbit monoclonal antibody 11B12 against the SARS-CoV-2 nucleocapsid protein (antibody, V domains shown)
VH: QQQLEESGGGLVKPGGTLTLTCTVSGLSLSSNTLNWVRQAPGKGLEWIGTIFIDDEDTYYASWAKGRFTISKTSSTTITLKMTSLTAADTATYFCARSSDLWDPGTLVVVSS
VL: AQVLTQTPSSVSAAVGGTVTINCQASQSVYKNNYLSWFQQKPGQPPKLLIYQASKLASGVSSRFKGSGSGTQFTLTISDVQCDDAATYFCLGSYDCRSANCIVFGGGTEVVVKG
B4: rabbit monoclonal antibody 5B12 against the SARS-CoV-2 nucleocapsid protein (antibody, V domains shown)
VH: QSLEESGGDLVQPEGTLTLTCTASGFSFFYDYYMCWVRQAPGKGLEWIGCIYGASGDTYYASWAKGRFTISKTSSTTVTLRMTSLTAADTATYFCARDVDTGSGIDFELWGPGTLVTVSS
VL: AYDMTQTPASVEVAVGGTVTIKCQASQSIGSYLSWYQQKPGQPPKLLIYSTSTLASGVPSRFKGSGSGTQFTLTISGVECADAATYYCQQGDTNHNIDNIFGGGTEVVVEG
B5: rabbit monoclonal antibody 6H7 against the SARS-CoV-2 nucleocapsid protein (antibody, V domains shown)
VH: QQQLEESGGGLVQPGGSLTLSCKASGFNVNSDCYMCWVRQAPGKGLEWIGCIDTVSGSTYYATWAKGRFTISKTSSTTVTLQMTSLTAADTATYFCARDFLYNVNNAGDIMDLWGPGTLVTVSL
VL: AQVLTQTPSSVSAAVGGTVTINCQSSYNVYNNNYLAWYQQKPGQPPKLLIYTTSTLASGVPSRFSGSGSGTQFTLTISDLECDDAAIYYCQGYYRGPVNDFGGGTEVVVEG
B6: rabbit monoclonal antibody 3A7 against the SARS-CoV-2 nucleocapsid protein (antibody, V domains shown)
VH: QEQLEESGGGLVQPEGSLTLTCTASGFSLSDSAYMCWVRQAPGKGLEWIACIDAGVSGSTYYASWVNGRFTISKTSSTTVTLQMTSLTVADTATYFCARDFLYTPNNAGDIMDLWGPGTLVTVSL
VL: AQVLTQTPSSVSAAVGGTVTINCQSSHTVYSNNYLSWYQQKPGQPPKLLIYSASSLASGVPSRFKGSGSGTQFTLTISDLECDDAAIYYCHGYWRGPVNDFGGGTEVVVEG
B7: rabbit monoclonal antibody 1G7 against the SARS-CoV-2 nucleocapsid protein (antibody, V domains shown)
VH: QQQVVESGGGLVKPGASLTLTCEASGFSFSSGYDMCWVRQAPGKGLEWIACIYPGSSGNTYYASWAKGRFTISKTSSTTVTLQMTSLTAADTATYFCARTYASSSGDYIPYFFNLWGPGTLVTVSS
VL: DIVMTQTPASVEAAVGGTVTIKCQASENIYSGLAWYQQKPGQPPKLLIYDASDLASGVPSRFKGSGSGTEYTLTISDLECADAATYYCQNYYYSSRGFNTFGGGTEVVVKG

biological target: T1, nucleocapsid protein of SARS-CoV-2 (SARS-CoV-2, UniProt P0DTC9 1-419)

**Q.** With B1 as the binder, how does the Kd read?
**A.** 2.29 nM

**Q.** And the koff?
**A.** 0.000206 s⁻¹

**Q.** And the kon?
**A.** 90200 M⁻¹ s⁻¹

**Q.** How did the Kd turn out when B2 was run?
**A.** 0.717 nM

**Q.** What about the koff of the same binder?
**A.** 0.000261 s⁻¹

**Q.** What about the kon of the same binder?
**A.** 364000 M⁻¹ s⁻¹

**Q.** With B3 as the binder, how does the Kd read?
**A.** 0.0565 nM

**Q.** What about the koff of the same binder?
**A.** 2.63e-05 s⁻¹

**Q.** And the kon?
**A.** 465000 M⁻¹ s⁻¹

**Q.** Which Kd does the source give for B4 here?
**A.** 1.89 nM

**Q.** What about the koff of the same binder?
**A.** 8.29e-05 s⁻¹

**Q.** What about the kon of the same binder?
**A.** 44000 M⁻¹ s⁻¹

**Q.** For B5, which Kd is on record?
**A.** 0.674 nM

**Q.** What about the koff of the same binder?
**A.** 0.000238 s⁻¹

**Q.** And the kon?
**A.** 354000 M⁻¹ s⁻¹

**Q.** Which results are given for B6?
**A.** Kd: 1.22 nM; koff: 0.000272 s⁻¹; kon: 224000 M⁻¹ s⁻¹

**Q.** Which results are given for B7?
**A.** Kd: 8.14 nM; koff: 9.87e-05 s⁻¹; kon: 12100 M⁻¹ s⁻¹

biological target: T1, nucleocapsid protein of SARS-CoV-2; remark: another data set of the same source

**Q.** With B7 as the binder, how does the “EC50 (read off the curve)” value read?
**A.** ~10 ng/mL
